Data as given in PMC12046042.

What was measured:
Test in all cases: SPR
FcγRIIa-131R = target: FcγRIIa-131R
FcγRIIa-131H = target: FcγRIIa-131H
FcγRIIIa-158F = target: FcγRIIIa-158F
FcγRIIb = target: FcγRIIb
[1] = target: FcγRI (CD64) extracellular domain (UniProt P12314)
FcγRIIIa-158V = target: FcγRIIIa-158V

FcγRI (CD64) extracellular domain, sequence (P12314 16-292): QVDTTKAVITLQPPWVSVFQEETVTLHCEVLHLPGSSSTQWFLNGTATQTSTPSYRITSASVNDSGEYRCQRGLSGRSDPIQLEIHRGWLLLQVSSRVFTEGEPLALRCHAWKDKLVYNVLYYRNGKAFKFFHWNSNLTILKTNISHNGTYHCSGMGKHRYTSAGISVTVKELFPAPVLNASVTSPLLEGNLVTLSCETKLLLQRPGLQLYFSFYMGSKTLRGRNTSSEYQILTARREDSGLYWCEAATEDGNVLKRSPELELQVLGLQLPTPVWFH

Kd (FcγRIIa-131R) [nM] | Kd (FcγRIIa-131H) [nM] | Kd (FcγRIIIa-158F) [nM] | Kd (FcγRIIb) [nM] | Kd [1] [nM] | Kd (FcγRIIIa-158V) [nM] | Substance
800 | 600 | 1400 | 4400 | 0.0643 | 200 | Hu IgG1
1600 | 4100 | 10000 | 1600 | 0.472 | 3100 | Hu IgG4P
> 10000 | > 10000 | > 10000 | > 10000 | > 200 | 8900 | Hu IgG4PAA
